Results: patent US20180360949A1

Assays:
[1] = biological target: CD4 (UniProt P01730); experiment: Biacore CD4 binding, lot comparison (reference material)
[2] = biological target: CD4 (UniProt P01730); experiment: Biacore CD4 binding, lot comparison (clinical trial material)

Row | Substance | CD4 binding (Biacore) % [1] [%] | CD4 binding (Biacore) % [2] [%]
1 | 1086.C gp120 | 100 | 87
2 | TV1.C gp120 | 91 | 98
